Consider 1 molecule from US6635627B1, “Anti-cancer products for treating cystic fibrosis” (Centre National de la Recherche Scientifique (CNRS), priority 1997, dated 2003).

This assay is described as follows: Retention on affinity column grafted with glutathione (GSH) after thrombin cutting. It is filed as binding. The settings on record: after cutting GST-NBF1 with thrombin; coelutes with GST. On the procedure:
The suspension was centrifuged at 17,000 rpm for 40 minutes, and at 4° C., on a JA20 rotor (Beckman). The supernatant was incubated with 5 ml of a glutathione support (G4B Pharmacia) at ambient temperature for 30 minutes. The column was filled. The fusion protein was eluted with a 10 mM glutathione, 50 mM Tris, pH 8, solution at a flow rate of 0.05 ml/min. The fractions absorbing at 280 nm were collected and applied in portions of 500 μl to an ion exchange column (MonoQ, Pharmacia). The column was eluted with a 150 mM solution of NaCl and a 42 kD protein was identified on an SDS-PAGE gel and then confirmed by mass spectroscopy. The production yields of soluble fusion protein are 5 mg/l of culture.
Following purification, the fusion protein sample was dialyzed against a buffer (150 mM NaCl, 2.5 mM CaCl2, 50 mM Tris/HC1) at pH=8. Human thrombin (T7009, Sigma) was added to give a final concentration of 5u per mg of fusion protein. The mixture was incubated at ambient temperature for 30 minutes. The products of the cutting reaction were characterized on an SDS-PAGE gel and a protein having a molecular weight of 18 kD (corresponding to the expected molecular weight of NBF1) was observed.
The GST-NBF1 fusion protein is efficiently recognized by an anti-NBF1 antibody (MATG 1061, distributed by Transgene). The affinity of this recombinant protein for ATP was verified. […]

B1: NBF1: Recombinant NBF1 domain of the CFTR protein (sequence R450-I586), 18 kD, released from GST fusion by thrombin (protein, UniProt P13569 450-586, looked up, fragment)
chain: RGQLLAVAGSTGAGKTSLLMVIMGELEPSEGKIKHSGRISFCSQFSWIMPGTIKENIIFGVSYDEYRYRSVIKACQLEEDISKFAEKDNIVLGEGGITLSGGQRARISLARAVYKDADLYLLDSPFGYLDVLTEKEI
For the molecule B1, the “behaviour on column of immobilized GSH” value is listed as “retained on the GSH column”.
